Values belong to the binder of their own block, whether it stands above or below them.
Legend:
[1] = molecular target: ^CFPCul1–Rbx1 (UniProt Q13616 1-776; P62877 1-108); experiment: FRET or BRET
[2] = molecular target: GST-Rbx1–Cul1 (UniProt P62877 1-108; Q13616 1-776); experiment: pull-down
Chain of GST-Rbx1–Cul1 (P62877 whole entry, chain 1 of 2): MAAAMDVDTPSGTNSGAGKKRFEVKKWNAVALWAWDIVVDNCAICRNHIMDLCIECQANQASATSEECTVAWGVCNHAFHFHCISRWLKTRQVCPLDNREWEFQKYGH
Chain of GST-Rbx1–Cul1 (Q13616 whole entry, chain 2 of 2): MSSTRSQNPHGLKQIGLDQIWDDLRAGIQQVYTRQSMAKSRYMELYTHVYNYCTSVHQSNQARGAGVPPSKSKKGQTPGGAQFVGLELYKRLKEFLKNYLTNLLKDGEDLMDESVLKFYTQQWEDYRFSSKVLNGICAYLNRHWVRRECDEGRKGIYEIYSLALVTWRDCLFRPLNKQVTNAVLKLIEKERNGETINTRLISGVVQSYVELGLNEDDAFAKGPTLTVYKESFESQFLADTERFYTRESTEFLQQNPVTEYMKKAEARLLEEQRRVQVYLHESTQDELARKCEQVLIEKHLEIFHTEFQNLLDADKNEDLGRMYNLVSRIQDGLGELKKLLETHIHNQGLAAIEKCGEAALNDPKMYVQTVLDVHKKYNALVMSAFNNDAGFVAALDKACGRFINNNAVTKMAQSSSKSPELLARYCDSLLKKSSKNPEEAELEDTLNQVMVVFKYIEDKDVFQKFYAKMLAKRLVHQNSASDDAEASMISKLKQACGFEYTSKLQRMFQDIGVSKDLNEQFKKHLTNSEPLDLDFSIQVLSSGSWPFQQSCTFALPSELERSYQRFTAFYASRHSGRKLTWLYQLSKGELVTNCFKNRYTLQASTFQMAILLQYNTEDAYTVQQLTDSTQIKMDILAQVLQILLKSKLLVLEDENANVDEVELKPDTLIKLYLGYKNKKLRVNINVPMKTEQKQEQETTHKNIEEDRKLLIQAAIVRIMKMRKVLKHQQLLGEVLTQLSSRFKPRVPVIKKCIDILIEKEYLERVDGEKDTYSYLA

Chain of ^CFPCul1–Rbx1 (Q13616 whole entry, chain 1 of 2): as the sequence (Q13616 whole entry, chain 2 of 2) above
Chain of ^CFPCul1–Rbx1 (P62877 whole entry, chain 2 of 2): as the sequence (P62877 whole entry, chain 1 of 2) above

- Kd [1]: ≤ 53 nM
B1: Cullin-associated and neddylation-dissociated protein 1 (Cand1) (natural protein, UniProt Q86VP6 1-1230, looked up)
chain: MASASYHISNLLEKMTSSDKDFRFMATNDLMTELQKDSIKLDDDSERKVVKMILKLLEDKNGEVQNLAVKCLGPLVSKVKEYQVETIVDTLCTNMLSDKEQLRDISSIGLKTVIGELPPASSGSALAANVCKKITGRLTSAIAKQEDVSVQLEALDIMADMLSRQGGLLVNFHPSILTCLLPQLTSPRLAVRKRTIIALGHLVMSCGNIVFVDLIEHLLSELSKNDSMSTTRTYIQCIAAISRQAGHRIGEYLEKIIPLVVKFCNVDDDELREYCIQAFESFVRRCPKEVYPHVSTIINICLKYLTYDPNYNYDDEDEDENAMDADGGDDDDQGSDDEYSDDDDMSWKVRRAAAKCLDAVVSTRHEMLPEFYKTVSPALISRFKEREENVKADVFHAYLSLLKQTRPVQSWLCDPDAMEQGETPLTMLQSQVPNIVKALHKQMKEKSVKTRQCCFNMLTELVNVLPGALTQHIPVLVPGIIFSLNDKSSSSNLKIDALSCLYVILCNHSPQVFHPHVQALVPPVVACVGDPFYKITSEALLVTQQLVKVIRPLDQPSSFDATPYIKDLFTCTIKRLKAADIDQEVKERAISCMGQIICNLGDNLGSDLPNTLQIFLERLKNEITRLTTVKALTLIAGSPLKIDLRPVLGEGVPILASFLRKNQRALKLGTLSALDILIKNYSDSLTAAMIDAVLDELPPLISESDMHVSQMAISFLTTLAKVYPSSLSKISGSILNELIGLVRSPLLQGGALSAMLDFFQALVVTGTNNLGYMDLLRMLTGPVYSQSTALTHKQSYYSIAKCVAALTRACPKEGPAVVGQFIQDVKNSRSTDSIRLLALLSLGEVGHHIDLSGQLELKSVILEAFSSPSEEVKSAASYALGSISVGNLPEYLPFVLQEITSQPKRQYLLLHSLKEIISSASVVGLKPYVENIWALLLKHCECAEEGTRNVVAECLGKLTLIDPETLLPRLKGYLISGSSYARSSVVTAVKFTISDHPQPIDPLLKNCIGDFLKTLEDPDLNVRRVALVTFNSAAHNKPSLIRDLLDTVLPHLYNETKVRKELIREVEMGPFKHTVDDGLDIRKAAFECMYTLLDSCLDRLDIFEFLNHVEDGLKDHYDIKMLTFLMLVRLSTLCPSAVLQRLDRLVEPLRATCTTKVKANSVKQEFEKQDELKRSAMRAVAALLTIPEAEKSPLMSEFQSQISSNPELAAIFESIQKDSSSTNLESMDTS

- koff [2]: 1.2e-05 s⁻¹
B2: Cand1^TAMRA (natural protein, UniProt Q86VP6 1-1230, looked up)
chain: B1 chain
modifications: TAMRA (site not stated)
